In PMC9022993:

Target: human parkin, full-length, affinity tag cleaved (human) (UniProt O60260)
Test: ITC; parkin (20 µM in 162 µl) in the cell titrated with the chimera (mG2-Ub 100 µM, CISD1-Ub 212 µM, mG2-pUb 84 µM, CISD1-pUb 106 µM); 18°C or 25°C; 25 mM HEPES or 20 mM Tris, 100 mM NaCl, 250 µM TCEP, pH 7.5 or 8.0; duplicate; single-site model

human parkin, full-length, affinity tag cleaved (human), sequence (O60260 whole entry): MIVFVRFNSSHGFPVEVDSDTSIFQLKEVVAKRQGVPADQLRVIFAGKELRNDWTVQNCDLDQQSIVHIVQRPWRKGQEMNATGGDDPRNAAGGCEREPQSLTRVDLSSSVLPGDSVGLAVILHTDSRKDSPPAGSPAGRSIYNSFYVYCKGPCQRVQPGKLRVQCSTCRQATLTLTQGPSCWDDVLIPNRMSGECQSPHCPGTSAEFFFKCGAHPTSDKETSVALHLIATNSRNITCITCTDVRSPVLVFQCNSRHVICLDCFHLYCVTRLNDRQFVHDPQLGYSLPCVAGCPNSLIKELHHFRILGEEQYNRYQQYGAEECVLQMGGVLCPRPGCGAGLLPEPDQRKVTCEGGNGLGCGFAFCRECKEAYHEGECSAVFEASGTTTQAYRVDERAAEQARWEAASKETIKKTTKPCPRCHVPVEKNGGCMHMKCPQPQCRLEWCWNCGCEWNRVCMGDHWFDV

Kd | dH | Substance
450 nM | 7.17 kcal/mol | CISD1-pUb (CISD1-Ub phosphorylated by PINK1 at S65 of its Ub) (from UniProt Q9NZ45 32-108; P0CG63 1-76)
920 nM | 9.8 kcal/mol | mG2-pUb (mG2-Ub phosphorylated by PINK1 at S65 of its Ub) (from UniProt Q8IXI2 402-582; P0CG63 1-76)
